Experimental findings from US20050112108, “Transcriptional regulator of genes involved in the control of cell growth or cell proliferation. Use of said regulator as a therapeutic or diagnostic agent” (published 2005) are described below.

Data set [1] has as its target T1, GAAP-1 (IPCS-BF1, 2.5 kb PRDII-BF1 splice product) (Homo sapiens, UniProt P15822 SEQ:1-693).
T1 chain: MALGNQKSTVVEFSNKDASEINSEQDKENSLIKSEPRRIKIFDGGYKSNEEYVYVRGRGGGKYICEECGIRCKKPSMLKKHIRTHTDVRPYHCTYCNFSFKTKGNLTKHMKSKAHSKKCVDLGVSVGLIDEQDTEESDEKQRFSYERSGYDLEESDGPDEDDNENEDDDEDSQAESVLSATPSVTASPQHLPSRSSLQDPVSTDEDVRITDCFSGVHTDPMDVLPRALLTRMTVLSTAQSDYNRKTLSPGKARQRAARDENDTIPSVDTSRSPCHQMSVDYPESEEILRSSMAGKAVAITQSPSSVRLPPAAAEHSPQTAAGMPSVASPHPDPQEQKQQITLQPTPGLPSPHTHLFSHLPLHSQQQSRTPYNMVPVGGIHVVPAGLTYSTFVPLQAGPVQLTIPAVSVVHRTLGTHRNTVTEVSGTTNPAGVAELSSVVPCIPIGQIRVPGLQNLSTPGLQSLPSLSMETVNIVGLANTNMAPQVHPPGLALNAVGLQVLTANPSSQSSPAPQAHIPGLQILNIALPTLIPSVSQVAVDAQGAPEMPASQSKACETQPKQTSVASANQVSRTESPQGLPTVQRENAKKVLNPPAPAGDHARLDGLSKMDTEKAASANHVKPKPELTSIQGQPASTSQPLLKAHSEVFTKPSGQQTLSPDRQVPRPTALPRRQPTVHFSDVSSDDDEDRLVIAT
The experiment in a line: EMSA; two complexes (possible homodimer); considerably stronger than IPCS-p53. As to conditions: tags: none (TNT reticulocyte lysate, pcDNA3.1); label: 32P. Here is the method:
The protein-DNA binding reactions were carried out using 5 μg of nuclear extract and 0.1 fmol of probe in 20 μl of binding buffer (20 mM Tris-HCl, 25 mM KCl, 1 mM DTT, 1 mM EDTA, 0.1% Nonidet P40, 4% glycerol, 1 mg/ml bovine serum alcbumin, μg/ml poly(dI-dC)) for 20 min at 4° C. In vitro translation products were generated by 50 μl of TNT coupled reticulocyte Lysate System (Promega) and 1 μg of the appropriate plasmid. 5 μl of the in vitro product was used instead of the nuclear extract when required. The reaction mixture was then electrophoresed on a 6% non denaturing acrylamide gel. Competition experiments were carried out using a 50-fold molar excess of the unlabelled probe. The following oligonucleotides (and their complementary strands) were used in these studies:
PRDII-BF1 was previously described as a protein binding to an NF-κB site whose ability to recognise the DNA is determined by two pairs of zinc fingers, one of them present in GAAP-1 (Fan 90, Gaynor, Baldwin). […] To confirm the binding specificity of the cloned GAAP-1 for the IPCS target sequence, in vitro translated GAAP-1 was incubated with labelled IPCS or NF-κB oligonucleotide and analysed by Electro Mobility Shift Assay (EMSA). […] Furthermore, the affinity of in vitro translated GAAP-1 was considerably stronger for the NF-κB probe than for the IPCS-P53 probe. […]
For orientation: Mobility shift assays separate free from complexed probe on a gel.

Data set [2] deals with T1, GAAP-1 (IPCS-BF1, 2.5 kb PRDII-BF1 …). The experiment in a line: EMSA; one complex; competed by 50-fold excess; weaker than NF-kB probe in vitro. Particulars: tags: none (TNT reticulocyte lysate, pcDNA3.1); label: 32P. Here is the method:
FIG. 5a)—EMSA using the IPCS-p53 probe and in vitro translated GAAP-1 (lane1), GAAP-1 mtZ1 (lane 3), GAAP-1 mt Z2 (lane 5), or reticulocyte lysat with the empty expression vector (lane 7). Even lanes: 50 fold molar excess of IPCS-p53 oligonucleotide was added to the reaction of the previous lane. The arrow indicates the specific complex.
Synthetic double stranded oligonucleotide probes were labelled with α-³²P dCTP (Amersham Corp.) by “filling-in” with Sequenase, and then purified on Sephadex G-50. The protein-DNA binding reactions were carried out using 5 μg of nuclear extract and 0.1 fmol of probe in 20 μl of binding buffer (20 mM Tris-HCl, 25 mM KCl, 1 mM DTT, 1 mM EDTA, 0.1% Nonidet P40, 4% glycerol, 1 mg/ml bovine serum alcbumin, μg/ml poly(dI-dC)) for 20 min at 4° C. In vitro translation products were generated by 50 μl of TNT coupled reticulocyte Lysate System (Promega) and 1 μg of the appropriate plasmid. […]
PRDII-BF1 was previously described as a protein binding to an NF-κB site whose ability to recognise the DNA is determined by two pairs of zinc fingers, one of them present in GAAP-1 (Fan 90, Gaynor, Baldwin). […] To confirm the binding specificity of the cloned GAAP-1 for the IPCS target sequence, in vitro translated GAAP-1 was incubated with labelled IPCS or NF-κB oligonucleotide and analysed by Electro Mobility Shift Assay (EMSA). […]

B1: NF-kB-MHC (dsDNA)
DNA 1: GATCCTCTGGGGATTCCCCATGGA
DNA 2: TCCATGGGGAATCCCCAGAGGATC
Take B1: in data set [1], the binding result was “binds”.

B2: IPCS-p53 EMSA probe (dsDNA)
DNA 1: AATGCAGGATTCCTCCAAAATGATTTCCAC
DNA 2: GTGGAAATCATTTTGGAGGAATCCTGCATT
Consider B2, for which the binding result in data set [2] is reported as “binds”.
